# Source: IntAct's records for PubMed 28506294
# B1: SOSS complex subunit B1 (Homo sapiens), Q9BQ15 (parent)
# chain: MTTETFVKDIKPGLKNLNLIFIVLETGRVTKTKDGHEVRTCKVADKTGSINISVWDDVGNLIQPGDIIRLTKGYASVFKGCLTLYTGRGGDLQKIGEFCMVYSEVPNFSEPNPEYSTQQAPNKAVQNDSNPSASQPTTGPSAASPASENQNGNGLSAPPGPGGGPHPPHTPSHPPSTRITRSQPNHTPAGPPGPSSNPVSNGKETRRSSKR
# Variants of: B1
# Details: with int3_human INTS3, Q68E01
# int3_human INTS3, Q68E01, sequence (Q68E01 whole entry): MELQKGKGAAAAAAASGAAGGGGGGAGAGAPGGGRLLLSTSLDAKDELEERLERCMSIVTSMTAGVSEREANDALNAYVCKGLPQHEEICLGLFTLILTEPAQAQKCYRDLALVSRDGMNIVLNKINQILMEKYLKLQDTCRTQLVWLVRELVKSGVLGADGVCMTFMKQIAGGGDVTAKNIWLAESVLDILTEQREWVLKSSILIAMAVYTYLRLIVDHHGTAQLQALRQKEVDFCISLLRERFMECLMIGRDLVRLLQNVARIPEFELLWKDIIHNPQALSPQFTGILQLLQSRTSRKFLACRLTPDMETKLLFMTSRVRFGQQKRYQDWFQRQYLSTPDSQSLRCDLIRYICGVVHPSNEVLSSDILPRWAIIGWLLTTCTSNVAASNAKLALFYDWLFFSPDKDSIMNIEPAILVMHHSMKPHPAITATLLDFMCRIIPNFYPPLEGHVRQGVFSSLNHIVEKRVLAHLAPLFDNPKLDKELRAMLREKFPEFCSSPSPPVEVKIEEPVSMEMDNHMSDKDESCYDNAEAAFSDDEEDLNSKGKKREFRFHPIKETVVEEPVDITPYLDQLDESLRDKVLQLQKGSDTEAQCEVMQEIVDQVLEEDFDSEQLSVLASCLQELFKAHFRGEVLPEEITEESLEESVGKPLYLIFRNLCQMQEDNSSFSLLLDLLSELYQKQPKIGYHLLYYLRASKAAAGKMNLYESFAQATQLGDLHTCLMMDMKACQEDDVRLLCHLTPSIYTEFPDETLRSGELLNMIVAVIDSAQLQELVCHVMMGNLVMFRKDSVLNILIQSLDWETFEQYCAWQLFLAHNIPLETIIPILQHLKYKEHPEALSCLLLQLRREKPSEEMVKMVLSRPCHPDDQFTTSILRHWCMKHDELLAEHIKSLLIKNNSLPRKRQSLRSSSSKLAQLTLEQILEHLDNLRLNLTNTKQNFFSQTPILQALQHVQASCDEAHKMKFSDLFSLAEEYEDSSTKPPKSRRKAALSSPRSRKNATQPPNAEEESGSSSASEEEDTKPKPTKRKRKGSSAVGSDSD
row,Variant,effect of a mutation on the interaction
1,F98A,disrupting interaction strength
